Assay: label from the status in PepcDB records

Sequence	protein production
MTRRPLLLPALGLALGVGLGLEGATVPPAALGALPLALLPRLAPLAFAAAGWLAAASARVPPAAPPDGAVLVRGRVVGAPDRLEDRLRFPVRTAGGALLEAWAEPTPWPLALGDEVLFRATLRAPAGRRNPGGRDPGDRLRSGGAALVALADGPVVRTAAPAAASRLERARDRLAEAAGRWLPPDQAALVRAIGTGDRAALDPEASASFARSGLAHVLAVSGFHLVVVAFGLERLLRALLLRADAVAARADPRRVAAALTLPCALLYALATGAGAPVVRAALAAAVILAGALLDRAADPLNSLALAALAILAAEPAALLDASFQLSFAAVAGLALWATPLRGALPVARPAPGSWRARLLEPFLSGAAATVAATLATAPVLAFHFRQLPLLGVAANVAAIPLGAALTALAALAAVAAAASPLAAAPFLLAAGPLAAALRAVSDAAAAPRWGAVGLASPGGWAAAAATALVLGVPALPRRLRLGAGALAAALLLLPGPLRAAAARARGGLEVIFVSVGQGDAALLRLPDGSAVLVDGGGAAGGGPDPGARDLVPLLRDLGVRRLEAVFVSHPHPDHVLGLEAVARAFPVARAYSNGDRGDGPAREVLAALAPVTLAPGEAWERAGVRFEALGGDRTPFAANDASLVLRATYGATTFLFPGDVEAAGEAAAVARGGLRADVVKIPHHGSRTSSTEPFVRAVRARWAVACLGAHNRFGFPHPEPLARWAAAGAEVLRTDEGAVRFLSDGRAVRRVEAGSVLDALATWREQP	failed
MQDIHFRRHYVRHLPKEVSQNDIIKALASPLINDGMVVSDFADHVITREQNFPTGLPVEPVGVAIPHTDHKYVRQNAISVGILAEPVNFEDMGGEPDPVPVRVVFMLALGESNKQLNVLGWIMDVIQDEDFMQQLLVMNDDEIYQSIYTRISERGEV	not failed
MKTIGLLGGMSWESTIPYYRLINEGVKARLGGLHSASLVLHSVDFHDIEACQSAGDWDRAGEILAEAAVGLQQAGAEGIVLCTNTMHKVADAIAARCQVPFLHIADATGRAIAAKGQRRVALLGTRYTMEQTFYRGRLQEQFAIETLIPEADDRAQINQIIFDELCLGTFSEASRDYYLQTIAALAEQGAEGVIFGCTEIGLLVPAELSPLPVFDTAAIHAEDAVNFMLSAGPTPAA	failed
KRREIPLKVLVKAVLFACMLMRKTMASRVRVTILFATETGKSEALAWDLGALFSCAFNPKVVCMDKY	failed
MEELQEPLRGQLRLCFTQAARTSLLLLRLNDAALRALQECQRQQVRPVIAFQGHRGYLRLPGPGWSCLFSFIVSQCCQEGAGGSLDLVCQRFLRSGPNSLHCLGSLRERLIIWAAMDSIPAPSSVQGHNLTEDARHPESWQNTGGYSEGDAVSQPQMALEEVSVSDPLASNQGQSLPGSSREHMAQWEVRSQTHVPNREPVQALPSSASRKRLDKKRSVPVATVELEEKRFRTLPLVPSPLQGLTNQDLQEGEDWEQEDEDMDPRLEHSSSVQEDSESPSPEDIPDYLLQYRAIHSAEQQHAYEQDFETDYAEYRILHARVGTASQRFIELGAEIKRVRRGTPEYKVLEDKIIQEYKKFRKQYPSYREEKRRCEYLHQKLSHIKGLILEFEEKNRGS	failed
TPTEGLTIGDKAPTFTICGEKQLIDLKDLRGKYVLLSFWASYDALSRMQNATLNHAVAQADNVEMVSVSFDEYKSIFNETIKKDQISTSNCFVELAGVSSDLYQTYRLKRGFKNFLLDENGVIVAKDVTVSELSS	failed
MSLNARARALRHSRSGTIGLIVPDVNNAVFADMFSGVQMAASGHSTDVLLGQIDAPPRGTQQLSRLVSEGRVDGVLLQRREDFDDDMLAAVLEGVPAVTINSRVPGRVGSVILDDQKGGGIATEHLITLGHSRIAFISGTAIHDTAQRRKEGYLETLASAGLRSEAAWVVDAGWEADAGSAALNTLYRGANLGKPDGPTAVVVASVNAAVGALSTALRLGLRVPEDLSIVGINTTWVSDTVYPALTTVRLPLQRLGEVAADVLMEHLGGRALTDTVVTQPTPELLVRETTAPPTREGHHHHHH	not failed
MMWNLIKNEFIKLRYKRKYIICTIVFALICIGFCAVYVKMQKASTPDAAIQYYKDAKSSLQSKEKNIKDATLKQQYDQQISQLDEQIKQYQQSKNQGNSNWKKQLKNTIDSLKDEKNQAADITENTAKESYNKQIVFYQYLLNHNIKPQDNNSLSTFQLLQSLLKLIGYILIPIIIAIFSADIVSGEYTPPTIKVLLSKPASRAKILASKFIASAISCIAIILLIELITYLITGIAYGFDNPSYPVLVGTKYMNSGIKLTQDSTGLIPILGSSYVIPLWQFLIEMFLFQILFIIGCCSFFLLLSVVLRSSVLSMTLSIMIVIALNIISQISALHVIMPFLFTNYGSPYDILTNSIPSTSGLTFTTAIFGVIYLIIFTILCYGIANYSFKKKDMTV	failed
MAIDAFALILAMLGLGLLFARLRVLPDNSADVLNRIVLYICLPASVLTYVPRLHLDASLGGVIATPWLLTAIIVPLLWGCSRLLRFGRAEYAALLMCVVFTNSSFIGFPMVRALIGDHALPYAVVYDQFGTFVLLSTFGLYVLARYSGDTPPTARLIVMRVLQFPPLWALLFALTLMPGQPPAWIGSGLKNLADAMLPLVMLSVGFSLQLRLPADELKPLAVGLVFKLLLMPVLALPLSWVLGLRGQMLQTNVLESAMPTMITAAALAISHRLAPRLAAAMVGYSILLSLLTLPAWAWLLARLVA	failed
MFIYFPKNYVWSMSTVIAATHGGSIGEIDEFCRPLLDKSSDDADVGTVEFLHAWIGGADKLIKMAEQDLEKNRELSAAKKYYRAALYYLIAERMQEQGHPERLKVYKRYLELAELYRKYKKDDVKRVEIPYQNSHLSAIYAKGKTTDEKQAIVVMMNGLDSTKELMSYCPLADELVERGISVLMVDQPGTGEAIRLQDLRAVYNSEIWASPIVDWLCEQPEIDQHRIAAFGISLGGYYCPRAVAFEPRFCCAAIWGANHDWRAVQHARLKREGENPVPHYWKHVEWVFGAQDQKEFFEIAENMHLNGVLDRIKVPFLVTHGEKDRQIPLKYAYETYDQLINSPDKELLVIDDEMGGVEHSSIDNPLNAGAYIADWLAEHLNGKTSK	failed
MILINKRAEKQDYQTILAIWEKSVIVTHDFLTAEDRQFYKEQIPLFLDNVELFLWFAGEEVIGFSGTSERELDMLFLDPVATGNGYGSQILGWLIENKRINLVDVNEQNENATRFYLKHGFVVSSRSDLDGFGKPYPILQLQLK	not failed
MEFQSTVVATVDCQKQVRSWRLLRSFIQLLIPTCNCTLVQELEQDNTNLRGKKLYNDIKSRTSSFRSSSSLSSSTVTGTIFGYRKGKINFCIQTPRKSTNLDLLLELAVPTTVLAREMREGALRIVLERNNEKQDDDSFLSKPFWNMYCNGKRVGYARKRSPSQDDMTALTALSKVVVGAGVVTGKELGRFDDELMYLRASFRRVNGSKESESFHLIDPAGNIGQELSIFIVPSSV	failed
MKRGEELPPLEIEVTRTLIVAGAIASRDYQDVHHDAESARRRGSPDIFMNILTTNGLVGRYITDHFGPGAVLRKVAIRLGAPNYPGDTMVLTGTVVEVEGDTATVKVIGANGIGTHVRGTVTVTVPPGSASLEHHHHHH	failed
MISSLSASSSLVSSFVAVKATPVTGPLIPRRDLLSIRIRASSNQNSSGYCFPEKFKSFAKSAILIGAAVSMTGKFSTLPVKAESPVTTIEKTYEEVKEEKLSEITPLSELLDSTPEAVETLRSLLQQKLEKGEDEEALKLLERLVAAQPEETEWKFLMARLLGEMGRPENARQMFEEILQRNPLSFEALFENALLMDRSGEGNAVLQRLEDALAVAEAEYLVKEARDVRLIIAQIHFLQKNVDEALKSYEQLTKEDPKDFRPYFCRGMIYSLLDKNVEAKEQFAKYRELSPKKFEVEGYLRTPLSKMKLFGGSEEN	failed
MQSAKEKISDMASTAKEKLNIGGAKAQGHAEKTMARTKKEKKLAQEREKSKEAQAKADLHQSKAEHAADAQVHGHHLPGHSTYPTRATGANYPPGQI	failed
MTLGTNQVSKTHSFMTVSLIELWERFGYYGMQALIVYFMVQRLGFDDSRANLVWSACAALIYVSPAIGGWVGDKILGTKRTMLLGAGILSVGYALMTVPTENTWFMFSALGVIVVGNGLFKPNAGNLVRKIYEGDDSKIDSAFTIYYMAVNVGSTFSMLLTPWIKDYVNAQYGNEFGWHAAFAVCCVGILVGLGNYALMHKSLANYGSEPDTRPVNKKSLAIVLALAALSVVASAIILEYEDVARVFVYAAGVAVLGIFFHLIRTSEPSERAGLIAALILTVQTVFFFIFYQQMSTSLALFALRNVDWDFQVFGTHLWTWSPAQFQALNPIWIMVLSPVLAWSYSWAGRNNKDFSIAAKFALGFAVVAIGFFIYGFAGQFAVNGKTSSWVMIWGYASYSLGELLVSGLGLAMIARYVPARMGGFMMGAYFVASGISQYLGGVVANFASVPQDLVDPLQTLPVYTNLFNKLGVAAVVCTIIALAVLPLMRRLTESHHAHSSIENNAAASLRDVKAEQ	failed
MMHYGVLALTFLSVNLDFFLMLVFLLKKYRLWQVLLGYLLGNLILLTASFFVGKALTLFLPEWLLGFLGVLPIWLAFHDDDDDTADRAGGSPVINVLVTYLAVCAGCNLSIFLPVLVGESMVHFVMTLGFIGILTMLVVLIINQVAEIKAVQKQIAAHGERLMKICYVVIGLYVFWDSGLISHLIAFL	failed
MWRSCLRLRDGGRRLLNRPAGGPSASMSPGPTIPSPARAYAPPTERKRFYQNVSITQGEGGFEINLDHRKLKTPQAKLFTVPSEALAIAVATEWDSQQDTIKYYTMHLTTLCNTSLDNPTQRNKDQLIRAAVKFLDTDTICYRVEEPETLVELQRNEWDPIIEWAEKRYGVEISSSTSIMGPSIPAKTREVLVSHLASYNTWALQGIEFVAAQLKSMVLTLGLIDLRLTVEQAVLLSRLEEEYQIQKWGNIEWAHDYELQELRARTAAGTLFIHLCSESTTVKHKLLKE	failed
MGHHHHHHSHMRCQESMSAVLTAEQALKLVGEMFVYHMPFNRALGLELERYEKAFAQLAFNNQPMMVGNWAQSILHGGVIASALDVAAGLVCVGSTLTRHETISEDELRQRLSRMGTIDLRVDYLRPGRGNRFTATSSLLRAGNKVAVARVELHNEDQLYIASATATYMVG	failed
MSGMVDLKEFLAELGKTQKELKNVIEQAKDIGLELKTNSKMTPEQAGKLYKYIVDGIKEQIQANQPAKNPEQDNKDDLNTAVASKSLNKKVSKTPKKEETKSQPKPKKTKEKKKEAPTPIAKKKGGIEIVNTFENQTPPTENTPKVVSHSQIEKAKQKLQEIQKSREALNKLTQSNANNASNANNAKKEISEVKKQEQEIKRHENIKRRTGFRVIKRNDEVENESENSVTESKKPTQSAAAIFEDIKKEWQEKDKQEAKKAKKPSKPKATPTAKNNKSHKIDFSDARDFKGNDIYDDETDEILLFDLHEQDNFNKEEEEKEIRQNINDRVRVQRKNPWMNESGIKRQSKKKRAFRNDNSQKVIQSTTAIPEEVRVYEFAQKANLNLADVIKTLFNLGLMVTKNDFLDKDSIEILAEEFHLEISVQNTLEEFEVEEVLEGVKKERPPVVTIMGHVDHGKTSLLDKIRDKRVAHTEAGGITQHIGAYMVEKNDKWVSFIDTPGHEAFSQMRNRGAQVTDIAVIVIAADDGVKQQTIEALEHAKAANVPVIFAMNKMDKPNVNPDKLKAECAELGYNPVDWGGEHEFIPVSAKTGDGIDNLLETILIQAGIMELKAIEEGSARAVVLEGSVEKGRGAVATVIVQSGTLSVGDSFFAETAFGKVRTMTDDQGKSIQNLKPSMVALITGLSEVPPAGSVLIGVENDSIARLQAQKRATYLRQKALSKSTKVSFDELSEMVANKELKNIPVVIKADTQGSLEAIKNSLLELNNEEVAIQVIHSGVGGITENDLSLVSSSEHAVILGFNIRPTGNVKNKAKEYNVSIKTYTVIYALIEEMRSLLLGLMSPIIEEEHTGQAEVRETFNIPKVGTIAGCVVSDGVIARGIKARLIRDGVVIHTGEILSLKRFKDDVKEVSKGYECGIMLDNYNEIKVGDVFETYKEIHKKRTL	failed

— a protein production outcome set (Wang et al. 2014)
